One block for each molecule: values may come before it.
What was measured:
[1] = test system: Gαq downstream of the muscarinic receptor; experiment: Muscarinic receptor-dependent activation of PLC-β, [3H]inositol phosphate accumulation in HEK293 cells; assay type: cell-based; details: peptide for 30 minutes (FIG. 9)
Experimental: FIG. 9. Muscarinic receptor-dependent activation of PLC-β was determined by quantification of [^3H]inositol phosphate accumulation. Where indicated, HEK293 cells were treated with Palm-27-mer peptide for 30 minutes.
Since a major tenet of this invention is to interdict Gαq signaling in cells with peptidomimetics, it will be necessary to efficiently introduce peptides derived from this scaffold into cells. […] Moreover, once introduced, this peptide prevented the stimulation of PLC activity by Gαq downstream of the P2Y6 receptor and/or muscarinic receptor, a G protein-coupled receptor selective for Gαq (FIG. 7C and FIG. 9).
Since a major tenet of this work is to downregulate G-alpha-q signaling in cells with peptidomimetics, peptides derived from this scaffold have been efficiently delivered into cells.

Gαq = biological target: T1, Gαq (Homo sapiens, UniProt P50148); experiment: Fluorescence polarization competition: unlabeled PLC-β3 against TAMRA-labeled peptide for Gαq; assay type: binding; details: TAMRA-27-mer 400 nM, Gαq 800 nM
T1 sequence (P50148 1-359): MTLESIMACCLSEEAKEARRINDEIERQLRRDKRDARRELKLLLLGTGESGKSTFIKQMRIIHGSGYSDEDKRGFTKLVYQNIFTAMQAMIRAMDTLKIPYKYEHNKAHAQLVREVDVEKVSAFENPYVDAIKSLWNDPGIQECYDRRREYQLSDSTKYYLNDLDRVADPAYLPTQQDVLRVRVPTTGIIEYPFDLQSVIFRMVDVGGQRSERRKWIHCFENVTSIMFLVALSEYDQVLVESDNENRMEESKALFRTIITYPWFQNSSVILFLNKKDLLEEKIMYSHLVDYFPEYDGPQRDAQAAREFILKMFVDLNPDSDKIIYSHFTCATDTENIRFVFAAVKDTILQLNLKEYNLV
Experimental: FIGS. 3A and 3B. TAMRA-27-mer and PLC-β3 directly compete for Gαq. (FIG. 3A) Increasing concentrations of PLC-β3 were added to a solution of TAMRA-27-mer (400 nM) and Gαq (800 nM). The IC50 value is derived from three independent experiments. (FIG. 3B) Phospholipase activity of PLC-β3 activated by Gαq using lipid vesicles and inhibited by increasing concentrations of TAMRA-27-mer.
FIGS. 6A-C. Quantification of Gαq binding to peptides corresponding to the HTH of PLβ3. […] The structures of PLCβ3 (3 OHM) and p63RhoGEF (2RGN) bound to Gαq were superimposed and a single Gαq is shown. Immediately below is shown the sequence alignment of PLCβ3 (SEQ ID NO:37) and p63RhoGEF (SEQ ID NO:41) encompassing the helix-turn-helix. Underlined residues are labeled in the structure. […] (FIG. 6C) Increasing concentrations of unlabeled PLC-β3 were added to a solution of labeled 25-mer (400 nM) and Gαq (4 μM). KD and IC50 values were derived from three independent experiments.
Fluorescence polarization will be used to monitor disruption of complex formation between the 27-mer and active Gαq to identify compounds that directly compete with the complex. It is expected that the majority of these compounds will sit within the canonical effector-binding site of Gαq to prevent the binding of peptide—and by extension, prevent the binding of effectors. However, before using this assay format to identify inhibitors of complex formation it was necessary to insure that peptides corresponding to the HTH of PLC-β3 bound to Gαq. […] These experiments strongly support that peptides corresponding to the HTH of PLC-β3 directly bind to the effector pocket of Gαq and can be used as surrogates of effectors in assays of complex formation with active Gαq.
The most promising peptide consisted of 25 residues (TAMRA-25-mer) spanning the entire HTH and bound to G-alpha-q with appreciable affinity (Kd˜6 microMolar).

activated Gαq = biological target: T2, activated Gαq (Homo sapiens, UniProt P50148); details: full-length protein; read-out: dissociation constant (KD) for activated Gαq; cited from earlier work
T2 sequence (P50148 1-359): T1 sequence (P50148 1-359)

Molecule: Palm-PEG-PEG-HQDYAEALANPIKHVSL-Nle-DQRARQLAA (HQDYAEALANPIKHVSLXDQRARQLAA; non-natural residues) [Palm-27-mer, 27-mer HTH peptide with a palmityl lipid linked through PEG linkers]
- stimulation of PLC activity by Gαq downstream of the muscarinic receptor [1]: prevent the stimulation of PLC activity

- competition with the 27-mer for binding to Gαq (Gαq): could effectively compete
B1: PLC-β3: full-length phospholipase C beta 3, effector of Gαq, used as unlabeled competitor (protein)
chain: AGAQPGVHALQLEPPTVVETLRRGSKFIKWDEETSSRNLVTLRVDPNGFFLYWTGPNMEVDTLDISSIRDTRTGRYARLPKDPKIREVLGFGGPDARLEEKLMTVVSGPDPVNTVFLNFMAVQDDTAKVWSEELFKLAMNILAQNASRNTFLRKAYTKLKLQVNQDGRIPVKNILKMFSADKKRVETALESCGLKFNRSESIRPDEFSLEIFERFLNKLCLRPDIDKILLEIGAKGKPYLTLEQLMDFINQKQRDPRLNEVLYPPLRPSQARLLIEKYEPNQQFLERDQMSMEGFSRYLGGEENGILPLEALDLSTDMTQPLSAYFINSSHNTYLTAGQLAGTSSVEMYRQALLWGCRCVELDVWKGRPPEEEPFITHGFTMTTEVPLRDVLEAIAETAFKTSPYPVILSFENHVDSAKQQAKMAEYCRSIFGDALLIEPLDKYPLAPGVPLPSPQDLMGRILVKNKKRHRPSAGGPDSAGRKRPLEQSNSALSESSAATEPSSPQLGSPSSDSCPGLSNGEEVGLEKPSLEPQKSLGDEGLNRGPYVLGPADREDEEEDEEEEEQTDPKKPTTDEGTASSEVNATEEMSTLVNYIEPVKFKSFEAARKRNKCFEMSSFVETKAMEQLTKSPMEFVEYNKQQLSRIYPKGTRVDSSNYMPQLFWNVGCQLVALNFQTLDVAMQLNAGVFEYNGRSGYLLKPEFMRRPDKSFDPFTEVIVDGIVANALRVKVISGQFLSDRKVGIYVEVDMFGLPVDTRRKYRTRTSQGNSFNPVWDEEPFDFPKVVLPTLASLRIAAFEEGGKFVGHRILPVSAIRSGYHYVCLRNEANQPLCLPALLIYTEASDYIPDDHQDYAEALINPIKHVSLMDQRARQLAALIGESEAQAGQETCQDTQSQQLGSQPSSNPTPSPLDASPRRPPGPTTSPASTSLSSPGQRDDLIASILSEVAPTPLDELRGHKALVKLRSRQERDLRELRKKHQRKAVTLTRRLLDGLAQAQAEGRCRLRPGALGGAADVEDTKEGEDEAKRYQEFQNRQVQSLLELREAQVDAEAQRRLEHLRQALQRLREVVLDANTTQFKRLKEMNEREKKELQKILDRKRHNSISEAKMRDKHKKEAELTEINRRHITESVNSIRRLEEAQKQRHDRLVAGQQQVLQQLAEEEPKLLAQLAQECQEQRARLPQEIRRSLLGEMPEGLGDGPLVACASNGHAPGSSGHLSGADSESQEENTQL
- Kd (activated Gαq): 10 to 100 nM

Source: patent US9540620B2, “Methods and compositions for modulating G-alpha-Q signaling” (The University of North Carolina at Chapel Hill, priority 2012, dated 2017)
